Reference: PMC8041770 (2021)

Molecular target: recombinant human LIF, histidine-tagged (hLIF-His) (human, UniProt P15018 23-202)
Assay: FACS

Sequence of recombinant human LIF, histidine-tagged (hLIF-His) (P15018 23-202): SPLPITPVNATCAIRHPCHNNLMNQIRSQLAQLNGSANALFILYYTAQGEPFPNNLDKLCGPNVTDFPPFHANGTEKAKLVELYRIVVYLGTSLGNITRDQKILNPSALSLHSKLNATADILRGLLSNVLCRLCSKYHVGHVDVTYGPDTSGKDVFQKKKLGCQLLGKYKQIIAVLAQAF

- Kd: 0.014 nM
B1: yeast-displayed eLIFR CBM I–Ig-like–CBM II domains (designed binder)
chain: QKKGAPHDLKCVTNNLQVWNCSWKAPSGTGRGTDYEVCIENRSRSCYQLEKTSIKIPALSHGDYEITINSLHDFGSSTSKFTLNEQNVSLIPDTPEILNLSADFSTSTLYLKWNDRGSVFPHRSNVIWEIKVLRKESMELVKLVTHNTTLNGKDTLHHWSWASDMPLECAIHFVEIRCYIDNLHFSGLEEWSDWSPVKNISWIPDSQTKVFPQDKVVPVGSDITFCCVSQEKVLSALIGRTNCPLIHLDGENVAIKVRNVSASASSGTNVVFITEDDIFGTVIFAGYPPDTPQQLNCETHDLKEIICSWNPGRVTALVGPRATSYTLVESFSGKYVRLKRAEAPTNESYQLLFQMLPNQEIYNFTLNAHNPLGRSQSTILVNITEKVYPHTPTSFKVKDINSTAVKLSWHLPGNFAKINFLCEIEIKKSNSVQEQRNVTIKGVENSSYLVALDKLNPYTLYTFRIRCSTETFWKWSKWSNKKQHLTTEAS
